Several values for one entry are separate records, joined by “and”; a condition that tells them apart may be missing. Identical values can stand only once. [ ]: non-standard residue; d: D form. The star is where a group is joined. NMeW = CN[C@@H](Cc1c[nH]c2ccccc12)C(=O)O; Stearoyl = CCCCCCCCCCCCCCCCCC(=O)*; αMeV = CC(C)[C@](C)(N)C(=O)O; αMeS = C[C@](N)(CO)C(=O)O
T1: β-catenin (UniProt P35222 134-665, limits assumed, biotinylated in the SPR and plate assays)
T1 sequence (looked up): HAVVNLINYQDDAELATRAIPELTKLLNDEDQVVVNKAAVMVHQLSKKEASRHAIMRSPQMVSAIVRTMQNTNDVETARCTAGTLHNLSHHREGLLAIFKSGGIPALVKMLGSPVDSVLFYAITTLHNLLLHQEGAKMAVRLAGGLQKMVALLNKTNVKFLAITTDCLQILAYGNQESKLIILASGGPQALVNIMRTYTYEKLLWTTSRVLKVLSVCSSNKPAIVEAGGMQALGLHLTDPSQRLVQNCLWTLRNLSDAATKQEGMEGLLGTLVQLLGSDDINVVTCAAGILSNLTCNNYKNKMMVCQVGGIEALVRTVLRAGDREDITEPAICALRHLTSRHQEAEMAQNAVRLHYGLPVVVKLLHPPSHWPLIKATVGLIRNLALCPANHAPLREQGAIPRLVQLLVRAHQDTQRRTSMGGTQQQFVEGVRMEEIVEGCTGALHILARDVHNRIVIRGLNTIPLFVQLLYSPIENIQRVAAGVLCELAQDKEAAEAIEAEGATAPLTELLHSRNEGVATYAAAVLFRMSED

T2: β-catenin in mouse endometriosis lesions (mouse, UniProt Q02248 2-781)
T2 construct: Endogenous protein in fixed tissue sections; also called cytoplasmic β-catenin
T2 sequence (looked up): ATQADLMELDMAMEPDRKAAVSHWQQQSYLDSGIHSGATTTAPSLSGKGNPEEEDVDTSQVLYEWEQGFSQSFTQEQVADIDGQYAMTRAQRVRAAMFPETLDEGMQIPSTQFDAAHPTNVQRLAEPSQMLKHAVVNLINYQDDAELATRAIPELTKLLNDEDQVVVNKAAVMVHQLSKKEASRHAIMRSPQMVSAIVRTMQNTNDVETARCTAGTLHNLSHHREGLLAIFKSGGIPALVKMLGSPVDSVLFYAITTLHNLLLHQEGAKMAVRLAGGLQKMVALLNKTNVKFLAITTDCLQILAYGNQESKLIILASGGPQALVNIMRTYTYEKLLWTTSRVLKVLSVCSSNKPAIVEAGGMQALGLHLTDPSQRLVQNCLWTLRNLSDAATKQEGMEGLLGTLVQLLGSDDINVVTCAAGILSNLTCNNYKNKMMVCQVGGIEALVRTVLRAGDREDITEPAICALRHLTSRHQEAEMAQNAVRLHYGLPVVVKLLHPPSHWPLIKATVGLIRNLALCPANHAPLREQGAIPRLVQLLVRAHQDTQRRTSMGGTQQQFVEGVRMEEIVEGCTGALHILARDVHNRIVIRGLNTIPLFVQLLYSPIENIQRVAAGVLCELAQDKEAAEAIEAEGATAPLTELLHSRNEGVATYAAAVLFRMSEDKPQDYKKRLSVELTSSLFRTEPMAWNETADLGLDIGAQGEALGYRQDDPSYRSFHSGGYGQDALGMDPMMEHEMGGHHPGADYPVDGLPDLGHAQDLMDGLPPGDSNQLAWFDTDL


How the values were obtained:
β-catenin [1] = target: T1, β-catenin; assay: cell-based or functional assay
[2] = target: T2, β-catenin in mouse endometriosis lesions; assay: immunofluorescence co-localisation in mouse lesions
Procedure: Endometriosis was established in a mouse model of disease. Mice were allowed to establish endometriosis for 3 weeks. […] To assess the localization of the peptides and β-catenin, lesions from the endometriosis mouse model were assessed. On the last day of treatment, in order to visualize the peptide localization to the lesion(s), mice were dosed with a biotinylated tagged peptide therapeutic or control. Mice were euthanized, lesions were removed, and fixed in formalin for histology and immunohistochemistry. […] Immunohistochemical negative controls were performed on lesion sections from all treatment groups using IgG non-specific antibodies (Rabbit-IgG, AbCam 1:100).

β-catenin [3] = target: T1, β-catenin; assay: competitive FP
Summary of the method: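 Competitive fluorescence polarization with inhibitor peptide serially diluted from 10 nM to 30 uM; polarization read at 470 nm excitation, 520 nm emission. Experiments performed three times.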

β-catenin [4] = target: T1, β-catenin; assay: SPR (Biacore); SPR (Biacore), direct binding
Procedure: Biotinylated protein (beta catenin) was immobilized on a high-affinity streptavidin (SA) sensor chip (GE). Peptide at increasing concentrations was flowed over in HBS EP+ buffer at room temperature according to manufacturer's instructions. The maximum binding capacity of the surface (response at saturation) was calculated using the Biacore® system (GE) instructions and binding was measured at each concentration as a data point. The binding levels were determined over a range of analyte concentrations of at least from 20% to 80% saturation of the surface. On rates, off rates, and KD were calculated using Biacore® Insight Evaluation Software software (GE).

| Binder | Proliferation IC50, Endo cells (β-catenin [1]) [µM] | Proliferation IC50, Wnt dependent cells (β-catenin [1]) [µM] | Wnt Reporter EC50 (β-catenin [1]) | binding result [2] | Kd (β-catenin [3]) [µM] | Kd (β-catenin [4]) [µM] |
| --- | --- | --- | --- | --- | --- | --- |
| Stearoyl-W[NMeW]E[αMeS]ILDEH[αMeV]QRVW-OH (393 used) [Peptide 4 (SEQ ID NO: 393/500)] | 5 | 1.7 | ≤ 7.5 µM | binds |  |  |
| H-MSRMWFLISFWMG-OH [SEQ ID NO: 14] |  |  | ≤ 7.5 µM |  | > 30 | 0.25 |
| KAESILDEHVQRVWG (HELM PEPTIDE1{K.[meA].E.S.I.L.D.E.H.V.Q.R.V.W.G}$PEPTIDE1,PEPTIDE1,1:R3-15:R2$$$V2.0; SMILES CC[C@H](C)[C@@H]1NC(=O)[C@H](CO)NC(=O)[C@H](CCC(=O)O)NC(=O)[C@H](C)N(C)C(=O)[C@@H](N)CCCCNC(=O)CNC(=O)[C@H](Cc2c[nH]c3ccccc23)NC(=O)[C@H](C(C)C)NC(=O)[C@H](CCCNC(=N)N)NC(=O)[C@H](CCC(N)=O)NC(=O)[C@H](C(C)C)NC(=O)[C@H](Cc2c[nH]cn2)NC(=O)[C@H](CCC(=O)O)NC(=O)[C@H](CC(=O)O)NC(=O)[C@H](CC(C)C)NC1=O) [SEQ ID NO: 18] |  |  | > 30 µM |  | > 30 | 0.076 |
| NPDGLSQEQLEHRERSLQTLRDIQRMLFPDEKEFTAAK (HELM PEPTIDE1{[ac].N.P.D.G.L.S.Q.E.Q.L.E.H.R.E.R.S.L.Q.T.L.R.D.I.Q.R.M.L.F.P.D.E.K.E.F.T.[bAla].[bAla].K.[am]}$$$$V2.0; SMILES CC[C@H](C)[C@H](NC(=O)[C@H](CC(=O)O)NC(=O)[C@H](CCCNC(=N)N)NC(=O)[C@H](CC(C)C)NC(=O)[C@@H](NC(=O)[C@H](CCC(N)=O)NC(=O)[C@H](CC(C)C)NC(=O)[C@H](CO)NC(=O)[C@H](CCCNC(=N)N)NC(=O)[C@H](CCC(=O)O)NC(=O)[C@H](CCCNC(=N)N)NC(=O)[C@H](Cc1c[nH]cn1)NC(=O)[C@H](CCC(=O)O)NC(=O)[C@H](CC(C)C)NC(=O)[C@H](CCC(N)=O)NC(=O)[C@H](CCC(=O)O)NC(=O)[C@H](CCC(N)=O)NC(=O)[C@H](CO)NC(=O)[C@H](CC(C)C)NC(=O)CNC(=O)[C@H](CC(=O)O)NC(=O)[C@@H]1CCCN1C(=O)[C@H](CC(N)=O)NC(C)=O)[C@@H](C)O)C(=O)N[C@@H](CCC(N)=O)C(=O)N[C@@H](CCCNC(=N)N)C(=O)N[C@@H](CCSC)C(=O)N[C@@H](CC(C)C)C(=O)N[C@@H](Cc1ccccc1)C(=O)N1CCC[C@H]1C(=O)N[C@@H](CC(=O)O)C(=O)N[C@@H](CCC(=O)O)C(=O)N[C@@H](CCCCN)C(=O)N[C@@H](CCC(=O)O)C(=O)N[C@@H](Cc1ccccc1)C(=O)N[C@H](C(=O)NCCC(=O)NCCC(=O)N[C@@H](CCCCN)C(N)=O)[C@@H](C)O, Bcl9 residues 347-381, acetylated, with beta-Ala-beta-Ala-K added, amidated) [SEQ ID NO: 270 (Ac-Bcl9(347-381)-AβAβK-CONH2)] |  |  |  |  | > 30 | 0.546 |

Next, values leading:

| Proliferation IC50, Endo cells (β-catenin [1]) [µM] | Proliferation IC50, Wnt dependent cells (β-catenin [1]) [µM] | Wnt Reporter EC50 (β-catenin [1]) | binding result [2] | Kd (β-catenin [3]) [µM] | Kd (β-catenin [4]) [µM] | Binder |
| --- | --- | --- | --- | --- | --- | --- |
|  |  | > 15 µM and ≤ 22.5 µM |  | > 30 | 0.12 | MSRMWFLISFWAG (HELM PEPTIDE1{M.S.R.M.W.F.L.I.S.F.W.[meA].G}$$$$V2.0; SMILES CC[C@H](C)[C@H](NC(=O)[C@H](CC(C)C)NC(=O)[C@H](Cc1ccccc1)NC(=O)[C@H](Cc1c[nH]c2ccccc12)NC(=O)[C@H](CCSC)NC(=O)[C@H](CCCNC(=N)N)NC(=O)[C@H](CO)NC(=O)[C@@H](N)CCSC)C(=O)N[C@@H](CO)C(=O)N[C@@H](Cc1ccccc1)C(=O)N[C@@H](Cc1c[nH]c2ccccc12)C(=O)N(C)[C@@H](C)C(=O)NCC(=O)O) [SEQ ID NO: 16] |
|  |  | > 30 µM |  | > 30 | 0.048 | KWAQSILNQHVQRVWG (HELM PEPTIDE1{K.W.[meA].Q.S.I.L.N.Q.H.V.Q.R.V.W.G}$PEPTIDE1,PEPTIDE1,1:R3-16:R2$$$V2.0; SMILES CC[C@H](C)[C@@H]1NC(=O)[C@H](CO)NC(=O)[C@H](CCC(N)=O)NC(=O)[C@H](C)N(C)C(=O)[C@H](Cc2c[nH]c3ccccc23)NC(=O)[C@@H](N)CCCCNC(=O)CNC(=O)[C@H](Cc2c[nH]c3ccccc23)NC(=O)[C@H](C(C)C)NC(=O)[C@H](CCCNC(=N)N)NC(=O)[C@H](CCC(N)=O)NC(=O)[C@H](C(C)C)NC(=O)[C@H](Cc2c[nH]cn2)NC(=O)[C@H](CCC(N)=O)NC(=O)[C@H](CC(N)=O)NC(=O)[C@H](CC(C)C)NC1=O) [SEQ ID NO: 20] |
|  |  | > 30 µM |  | > 30 | 0.337 | KMIRMWFLISFWG (cyclo-H2N-K(Aoc*)MIRM-NmeW-FLISFWG*) [SEQ ID NO: 21] |
|  |  | > 30 µM |  | > 30 | 0.059 | KAQSILDEHVQRVWG (HELM PEPTIDE1{K.[meA].Q.S.I.L.D.E.H.V.Q.R.V.W.G}$PEPTIDE1,PEPTIDE1,1:R3-15:R2$$$V2.0; SMILES CC[C@H](C)[C@@H]1NC(=O)[C@H](CO)NC(=O)[C@H](CCC(N)=O)NC(=O)[C@H](C)N(C)C(=O)[C@@H](N)CCCCNC(=O)CNC(=O)[C@H](Cc2c[nH]c3ccccc23)NC(=O)[C@H](C(C)C)NC(=O)[C@H](CCCNC(=N)N)NC(=O)[C@H](CCC(N)=O)NC(=O)[C@H](C(C)C)NC(=O)[C@H](Cc2c[nH]cn2)NC(=O)[C@H](CCC(=O)O)NC(=O)[C@H](CC(=O)O)NC(=O)[C@H](CC(C)C)NC1=O) [SEQ ID NO: 19] |

Reference: US20260098059A1 (ENDOMET BIOSCIENCES, published 2026)
